The source of these data is patent US20250197488A1 (MABWELL SHANGHAI BIOSCIENCE, published 2025).

Numbering of substitutions follows the chain as printed.

Sequences and labels used below:
B1: hz8C8-VHm1 + hz8C8-VL (antibody, human IgG1, kappa, V domains shown)
VH: EVQLVESGGGLVQPGGSLRLSCAASGFTFSSFGMHWVRQAPGKGLEWVAYITPGSNTIYYADTVKGRFTISRDNAKNSLYLQMNSLRAEDTAVYYCAREYYSYDEGFAYWGQGTLVTVSS
VL: EIVLTQSPATLSLSPGERATLSCSVSSSISSNYLHWYQQKPGQAPRLLIYRTSNLASGIPARFSGSGSGTDFTLTISSLEPEDFAVYYCQQGVDVPFTFGQGTKLEIKR
notes: human IgG1 constant regions
B2: hz8C8-VHm1 + hz8C8-VLm9 (antibody, human IgG1, kappa, V domains shown)
VH: B1 VH
VL: B1 VL with S27D, S28L, S30P, N32Q, H35A
notes: human IgG1 constant regions
B3: hz8C8-VHm1-m1 + hz8C8-VLm7 (antibody, human IgG1, kappa, V domains shown)
VH: B1 VH with F32Y
VL: B1 VL with S27D, S28L, S30P, N32Q
notes: human IgG1 constant regions
B4: hz8C8-VHm1 + hz8C8-VLm7-m2 (antibody, human IgG1, kappa, V domains shown)
VH: B1 VH
VL: B1 VL with S27D, S28L, S30P, N32Q, R51D, T52A
notes: human IgG1 constant regions
B5: hz8C8-VHm1-m3 + hz8C8-VLm7-m1 (antibody, human IgG1, kappa, V domains shown)
VH: B1 VH with Y101S
VL: B1 VL with S27D, S28L, S30P, N32Q, T52A
notes: human IgG1 constant regions
B6: hz8C8-VHm1 + hz8C8-VLm5 (antibody, human IgG1, kappa, V domains shown)
VH: B1 VH
VL: B1 VL with S27E, S28L, I29L, S31T
notes: human IgG1 constant regions
B7: hz8C8-VHm1 + hz8C8-VLm8 (antibody, human IgG1, kappa, V domains shown)
VH: B1 VH
VL: B1 VL with S27D, S28L, S30P, N32Q, H35S
notes: human IgG1 constant regions
B8: hz8C8-VHm1 + hz8C8-VLm7-m4 (antibody, human IgG1, kappa, V domains shown)
VH: B1 VH
VL: B1 VL with S27D, S28L, S30P, N32Q, L55R
notes: human IgG1 constant regions
B9: hz8C8-VHm1 + hz8C8-VLm3 (antibody, human IgG1, kappa, V domains shown)
VH: B1 VH
VL: B1 VL with S28L
notes: human IgG1 constant regions
B10: hz8C8-VHm1 + hz8C8-VLm1 (antibody, human IgG1, kappa, V domains shown)
VH: B1 VH
VL: B1 VL with S30P
notes: human IgG1 constant regions
B11: hz8C8-VHm1 + hz8C8-VLm7-m3 (antibody, human IgG1, kappa, V domains shown)
VH: B1 VH
VL: B1 VL with S27D, S28L, S30P, N32Q, R51G, T52A
notes: human IgG1 constant regions
B12: hz8C8-VHm1-m3 + hz8C8-VLm7 (antibody, human IgG1, kappa, V domains shown)
VH: B1 VH with Y101S
VL: B1 VL with S27D, S28L, S30P, N32Q
notes: human IgG1 constant regions
B13: hz8C8-VHm1 + hz8C8-VLm4 (antibody, human IgG1, kappa, V domains shown)
VH: B1 VH
VL: B1 VL with S27D, S28L
notes: human IgG1 constant regions
B14: hz8C8-VHm1 + hz8C8-VLm7 (antibody, human IgG1, kappa, V domains shown)
VH: B1 VH
VL: B1 VL with S27D, S28L, S30P, N32Q
notes: human IgG1 constant regions; also called hz8C8m7
B15: hz8C8-VHm1-m2 + hz8C8-VLm7 (antibody, human IgG1, kappa, V domains shown)
VH: B1 VH with Y50S
VL: B1 VL with S27D, S28L, S30P, N32Q
notes: human IgG1 constant regions
B16: hz8C8-VHm1 + hz8C8-VLm2 (antibody, human IgG1, kappa, V domains shown)
VH: B1 VH
VL: B1 VL with N32K
notes: human IgG1 constant regions
B17: hz8C8-VHm1 + hz8C8-VLm7-m1 (antibody, human IgG1, kappa, V domains shown)
VH: B1 VH
VL: B1 VL with S27D, S28L, S30P, N32Q, T52A
notes: human IgG1 constant regions
B18: hz8C8-VHm1 + hz8C8-VLm6 (antibody, human IgG1, kappa, V domains shown)
VH: B1 VH
VL: B1 VL with S28L, S30P, N32K
notes: human IgG1 constant regions

The first assay deals with T1, IL-11 (Cat. 12225-HNCE, Sino Biological Inc.) (UniProt P20809 22-199, limits assumed).
T1 sequence (looked up): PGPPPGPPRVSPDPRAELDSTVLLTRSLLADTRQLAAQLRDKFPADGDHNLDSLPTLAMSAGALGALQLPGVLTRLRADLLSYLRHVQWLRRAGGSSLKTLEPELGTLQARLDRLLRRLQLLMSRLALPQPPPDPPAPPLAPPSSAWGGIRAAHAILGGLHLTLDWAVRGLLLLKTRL
Kind of assay: cell-based or functional assay.
In the case of B1, the “Blocking activity (IC50), STAT3-luc reporter” value (shortened to “Blocking activity (IC50)”) came to 2.13 µg/mL.
Same read-out and setting: next, B2: 0.012 µg/mL; B3: 0.046 µg/mL; B4: 0.024 µg/mL.
Same read-out and setting: next, B5: 0.01 µg/mL.
As to B6, the “Blocking activity (IC50)” value came to 0.1 µg/mL.
The same measure, in the same setting: the value for B7 was 0.01 µg/mL; that for B8 was 0.021 µg/mL.
Still for that read-out and setting: next, B9: 0.125 µg/mL.
Take B10: the “Blocking activity (IC50)” value was found to be 0.804 µg/mL.
On to B11, for which the “Blocking activity (IC50)” value came to 0.017 µg/mL.
As to B12, the “Blocking activity (IC50)” value was 0.053 µg/mL.
B13: the “Blocking activity (IC50)” value worked out at 0.098 µg/mL.
For the molecule B14, the “Blocking activity (IC50)” value is 0.017 µg/mL.
On to B15, for which the “Blocking activity (IC50)” value came out at 0.052 µg/mL.
Still for that read-out and setting: the value for B16 was 0.038 µg/mL; that for B17 was 0.068 µg/mL.
Same read-out and setting: next, B18: 0.076 µg/mL.

Another assay has as its target T1, IL-11 (Cat. 12225-HNCE, Sino Biological …). Kind of assay: competition ELISA, IL-11/IL-11Rα/GP130 complex. As to the method:
The activity of the recombinant murine anti-IL-11 antibodies for blocking the formation of IL-11/IL-11Rα/GP130 complex was analyzed via competition ELISA. IL-11Rα-His (NP_004503.1, Met1-Val363, C-terminus-6-His Tag) was firstly added into ELISA plates to be coated overnight. Next day, samples were prepared as follows. […] After co-incubating and washing, an HRP conjugated anti-human Fc secondary antibody was added to develop the color which was then detected.
(§1) Then, light and heavy chain expression vectors for preparing mutant antibodies were constructed according to the method for preparing the recombinant antibodies provided in Example 4, using the mutant sequences shown in Table 3 which accordingly were linked with human IgG1 constant regions (SEQ ID NO. 13, and SEQ ID NO.14). Subsequently, the light chain and the heavy chain were reasonably matched and co-transfected into eukaryotic cells for transient expression, and then recombination protein samples of the mutant antibodies were obtained through affinity purification. The samples obtained were tested for affinity on Fortebio Octet, according to the method for measuring affinity provided in Example 1. Further, using the protocol provided in Example 3, hz8C8 and its affinity matured mutants were analyzed for their activity for blocking the formation of IL-11/IL-11Rα/GP130 complex.
(In an ELISA, binding on a coated surface is turned into a signal by an enzyme label.)
The IC50 is the point on the concentration scale where inhibition reaches its midpoint. Regarding B1, the IC50 turned out to be 2.09 µg/mL.
Consider B2, for which the 50% inhibitory concentration (IC50) was determined as 0.72 µg/mL.
With B3, the concentration for half-maximal inhibition (IC50) was determined as 0.75 µg/mL.
In the case of B4, the 50% inhibitory concentration (IC50) amounted to 0.74 µg/mL.
Consider B5, for which the IC50 was determined as 0.55 µg/mL.
With B6, the half-inhibitory concentration (IC50) stood at 0.838 µg/mL.
Same read-out and setting: the value for B7 was 0.7 µg/mL.
In the case of B8, the half-inhibitory concentration (IC50) turned out to be 0.69 µg/mL.
The same measure, in the same setting: the value for B9 was 0.943 µg/mL; that for B10 was 1.24 µg/mL.
The same measure, in the same setting: the value for B11 was 0.73 µg/mL.
In the case of B12, the IC50 came out at 0.83 µg/mL.
On to B13, for which the IC50 was 0.846 µg/mL.
Same read-out and setting: the value for B14 was 0.85 µg/mL.
Still for that read-out and setting: next, B15: 1.68 µg/mL; B16: 1.14 µg/mL.
The same measure, in the same setting: the value for B17 was 0.58 µg/mL.
Take B18: the IC50 stood at 1.01 µg/mL.

A further assay concerns the target T2, human IL-11 (AAH12506.1, Pro22-Leu199) (human, UniProt P20809 22-199).
T2 construct: The range Pro22-Leu199 counts on AAH12506.1; The Octet runs say only 'human IL-11'; also called hIL-11
T2 chain: T1 sequence (looked up) with H154L
Kind of assay: BLI (Octet), antibody captured, human IL-11 in solution. As to the method: The affinity of the murine antibodies purified from the hybridoma supernatants was determined using an Octet QKe System instrument from Fortebio Inc. with an anti-mouse IgG Fc Capture biosensor to capture the Fc fragments of the antibodies, for which an anti-IL-11 antibody named “3C6-mFc” recombinantly expressed was used at the same concentration as a positive control. Specifically, a hybridoma supernatant was diluted with HBS-EP+ buffer (GE), and was allowed to pass through the surface of AMC probes (Cat: 18-5088, PALL), and so the antibody in the hybridoma supernatant was captured on the surface of the probes; then, human IL-11 diluted in the HBS-EP+ buffer (300 nM) was used as a mobile phase to react with the antibody captured on the surface of the probes. Both the binding and the dissociating were conducted for 300 seconds. When the experiment was finished, data from which response values of blank controls had been deducted was fitted using a 1:1 Langmuir binding model by software, and then kinetic constants for antigen-antibody binding were calculated. Binding signals were detected on the Octet QKe System instrument with Hy5C2, Hy8C8, Hy16B5, Hy18A10, and Hy18H10.
The affinity of hz18A10 and hz8C8 was determined according to the method provided in Example 1 using AHC bioprobes for capturing human Fc fragment instead, with other conditions unchanged. A recombinantly expressed anti-IL-11 antibody 3C6-hFc was used at the same concentration as a positive control.
as §1, with “1.” for “1. Further, using the protocol provided in Example 3, hz8C8 and its affinity matured mutants were analyzed for their activity for blocking the formation of IL-11/IL-11Rα/GP130 complex.”
In general terms: In BLI a coated tip is dipped into the sample, and binding shifts an interference pattern.
What is called Kd is the equilibrium constant for the complex coming apart. As a reminder, the koff is a measure of how fast the partners let go of each other. Broadly, the kon is a measure of how fast the partners come together. For the molecule B1, the Kd is 0.613 nM, the dissociation rate constant (koff) was 0.000472 s⁻¹ and the kon was 770000 M⁻¹ s⁻¹.
B2: the Kd came out at 0.0354 nM, the koff came out at 3.45e-05 s⁻¹ and the on-rate (kon) turned out to be 975000 M⁻¹ s⁻¹.
Regarding B3, the Kd is 0.125 nM, the koff was 0.00013 s⁻¹ and the kon stood at 1.04e+06 M⁻¹ s⁻¹.
On to B4, for which the Kd stood at 0.0347 nM, the koff was determined as 3.7e-05 s⁻¹ and the kon was determined as 1.07e+06 M⁻¹ s⁻¹.
Consider B5, for which the Kd was 0.0609 nM, the koff came out at 5.81e-05 s⁻¹ and the kon stood at 954000 M⁻¹ s⁻¹.
In the case of B6, the Kd is 0.479 nM, the koff turned out to be 0.000406 s⁻¹ and the kon was 848000 M⁻¹ s⁻¹.
Turning to B7, the Kd worked out at 0.0313 nM, the koff was 2.97e-05 s⁻¹ and the kon was 948000 M⁻¹ s⁻¹.
The matching figures for B8: 0.178 nM, 0.000178 s⁻¹ and 1e+06 M⁻¹ s⁻¹.
Regarding B9, the Kd was 0.636 nM, the koff turned out to be 0.000496 s⁻¹ and the association rate constant (kon) amounted to 780000 M⁻¹ s⁻¹.
For the molecule B10, the Kd came to 0.178 nM, the koff is 0.000125 s⁻¹ and the on-rate constant (kon) was determined as 705000 M⁻¹ s⁻¹.
For B11, in that order: 0.0795 nM, 8.99e-05 s⁻¹ and 1.13e+06 M⁻¹ s⁻¹.
As for B12, the Kd was 0.0987 nM, the koff was determined as 0.00011 s⁻¹ and the kon is 1.12e+06 M⁻¹ s⁻¹.
Consider B13, for which the Kd was 0.161 nM, the koff is 0.000141 s⁻¹ and the kon amounted to 874000 M⁻¹ s⁻¹.
The matching figures for B14: 0.00429 nM, 3.52e-06 s⁻¹ and 822000 M⁻¹ s⁻¹.
For B15, in that order: 3.41 nM, 0.00355 s⁻¹ and 1.04e+06 M⁻¹ s⁻¹.
For B16, the Kd is 0.388 nM, the koff was found to be 0.000229 s⁻¹ and the kon was found to be 590000 M⁻¹ s⁻¹.
For the molecule B17, the Kd turned out to be 0.13 nM, the koff was 0.000136 s⁻¹ and the kon amounted to 1.05e+06 M⁻¹ s⁻¹.
The matching figures for B18: 0.0412 nM, 2.23e-05 s⁻¹ and 543000 M⁻¹ s⁻¹.
